± gives the standard deviation of the averaged measurements.
The sequences below were run on ATP (assay: switch fluorescence ratio, 500 uM ATP over buffer (Cy3 cluster intensity, sum of 5 cycles each) (fold (ratio)); higher = stronger signal-on switching upon ATP binding; sequences stand for … in TCGTCGGCAGCGTCAGATGTGTATAAGAGACAGTTTTTTTTTTTTTTTTTTTTTTTTT…TC). Details: aptamer strand: ATP DNA aptamer (quencher-CACCTGGGGGAGTATTGCGGAGGAAGG + anchor), 100 nM annealed; ATP concentration: 500 uM.
Method in brief: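 Exposure to 500 uM ATP lasted 15 min at 22 °C before imaging, and a selection-buffer image was taken beforehand, for Cy3-labelled switching-strand clusters on a modified Illumina MiSeq flow-cell annealed to 100 nM quencher-labelled ATP aptamer. Five buffer/ATP cycles were run with NaOH stripping and re-annealing between them. The fluorescence ratio per cluster is summed target-cycle over summed buffer-cycle Cy3 intensity, averaged per switch-domain sequence. Clusters outside 100-1000 RFU were excluded.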
For TCGGCACGGA, the switch fluorescence ratio was 0.999 ± 0.031. In the case of TCGGCCAGTT, the switch fluorescence ratio is reported as 1.01 ± 0.037. With TCGGCGGGAG the switch fluorescence ratio was 1.01 ± 0.042. TCGGCGGGGA gave a switch fluorescence ratio of 1.05 ± 0.14. Sequence TCGGCGTCAG has a switch fluorescence ratio of 0.9817 ± 0.0041. Sequence TCGGCTGCGT has a switch fluorescence ratio of 1.03 ± 0.018. Work on TCGGCTGTTG yielded a switch fluorescence ratio of 1 ± 0.028. In the case of TCGGCTTTTT, the switch fluorescence ratio is reported as 0.999 ± 0.025. Sequence TCGGGAAAAA has a switch fluorescence ratio of 0.991 ± 0.032. TCGGGAATCG showed a switch fluorescence ratio of 0.983 ± 0.027. TCGGGAGGGT was tested, and the switch fluorescence ratio was 1.02 ± 0.023. In the case of TCGGGATAAG, the switch fluorescence ratio is reported as 1.01 ± 0.018. Work on TCGGGATAGT yielded a switch fluorescence ratio of 1.03 ± 0.039. In the case of TCGGGCAACG, the switch fluorescence ratio is reported as 1 ± 0.041. Sequence TCGGGCCAGG has a switch fluorescence ratio of 1.1 ± 0.071. With TCGGGCTCGC the switch fluorescence ratio was 0.9639 ± 0.0068. For TCGGGCTGGT, the switch fluorescence ratio was 0.977 ± 0.011. With TCGGGGAAAG the switch fluorescence ratio was 1.04 ± 0.082. TCGGGGAAGT was tested, and the switch fluorescence ratio was 1.04 ± 0.042. TCGGGGAATA showed a switch fluorescence ratio of 1.02 ± 0.014. TCGGGGACGT was tested, and the switch fluorescence ratio was 1.062 ± 0.0057. With TCGGGGATCA the switch fluorescence ratio was 0.9752 ± 0.0058. With TCGGGGCGAG the switch fluorescence ratio was 1.02 ± 0.023. Work on TCGGGGCGTG yielded a switch fluorescence ratio of 1 ± 0.027. TCGGGGCTGT was tested, and the switch fluorescence ratio was 0.993 ± 0.026. TCGGGGGGA was tested, and the switch fluorescence ratio was 1.03 ± 0.034. Work on TCGGGGGGGG yielded a switch fluorescence ratio of 1 ± 0.036. TCGGGGGTAG showed a switch fluorescence ratio of 0.985 ± 0.014. With TCGGGGGTGC the switch fluorescence ratio was 1.04 ± 0.033. For TCGGGGTCTT, the switch fluorescence ratio was 0.9941 ± 0.0029. TCGGGGTGGG gave a switch fluorescence ratio of 1.03 ± 0.043. Work on TCGGGGTGTA yielded a switch fluorescence ratio of 1 ± 0.011. TCGGGTCGCC was tested, and the switch fluorescence ratio was 1 ± 0.044. In the case of TCGGGTCGGG, the switch fluorescence ratio is reported as 1 ± 0.021. In the case of TCGGGTGCGA, the switch fluorescence ratio is reported as 1.04 ± 0.011. TCGGGTTAGG showed a switch fluorescence ratio of 0.998 ± 0.032. In the case of TCGGGTTAGT, the switch fluorescence ratio is reported as 1.005 ± 0.0081. TCGGGTTCAG showed a switch fluorescence ratio of 1 ± 0.034. TCGGGTTGAG gave a switch fluorescence ratio of 1.01 ± 0.067. TCGGGTTTGT showed a switch fluorescence ratio of 1.01 ± 0.011. TCGGGTTTTC gave a switch fluorescence ratio of 1 ± 0.039. With TCGGTAATC the switch fluorescence ratio was 1.15 ± 0.0017. In the case of TCGGTATGAA, the switch fluorescence ratio is reported as 1.01 ± 0.018. TCGGTATTTG was tested, and the switch fluorescence ratio was 0.967 ± 0.037. TCGGTATTTT gave a switch fluorescence ratio of 1.01 ± 0.026. TCGGTCCCGG showed a switch fluorescence ratio of 1 ± 0.065. TCGGTCCCTT was tested, and the switch fluorescence ratio was 0.988 ± 0.035. In the case of TCGGTCGGGC, the switch fluorescence ratio is reported as 1.01 ± 0.013. In the case of TCGGTCGTTT, the switch fluorescence ratio is reported as 0.976 ± 0.015. TCGGTGAGAG showed a switch fluorescence ratio of 1.03 ± 0.019. Sequence TCGGTGAGGT has a switch fluorescence ratio of 0.9988 ± 0.0027. TCGGTGGGAG was tested, and the switch fluorescence ratio was 0.981 ± 0.048. TCGGTGTCCG gave a switch fluorescence ratio of 1.03 ± 0.055. In the case of TCGGTGTTTT, the switch fluorescence ratio is reported as 1.05 ± 0.055. Sequence TCGGTTGAGA has a switch fluorescence ratio of 1.01 ± 0.021. Sequence TCGGTTGGGT has a switch fluorescence ratio of 0.984 ± 0.038. In the case of TCGGTTGGTA, the switch fluorescence ratio is reported as 1 ± 0.042. For TCGGTTGGTT, the switch fluorescence ratio was 0.967 ± 0.023. TCGGTTGTCT gave a switch fluorescence ratio of 1.02 ± 0.052. For TCGGTTTATG, the switch fluorescence ratio was 0.994 ± 0.023. TCGGTTTCG gave a switch fluorescence ratio of 0.989 ± 0.095. In the case of TCGGTTTTGC, the switch fluorescence ratio is reported as 0.982 ± 0.028. TCGTAAAAA showed a switch fluorescence ratio of 1.07 ± 0.13. For TCGTACCTTG, the switch fluorescence ratio was 1.01 ± 0.025. Sequence TCGTAGATGT has a switch fluorescence ratio of 1 ± 0.026. Work on TCGTAGGGGA yielded a switch fluorescence ratio of 1.03 ± 0.025. With TCGTAGGGGG the switch fluorescence ratio was 0.979 ± 0.072. For TCGTATTACA, the switch fluorescence ratio was 1.011 ± 0.0035. TCGTATTCGG showed a switch fluorescence ratio of 0.992 ± 0.025. TCGTATTGAG showed a switch fluorescence ratio of 0.9482 ± 0.0077. With TCGTCAGGTG the switch fluorescence ratio was 2.48 ± 0.084. Sequence TCGTCATGTT has a switch fluorescence ratio of 0.999 ± 0.015. TCGTCCAAGT gave a switch fluorescence ratio of 1.07 ± 0.066. TCGTCCCTGT gave a switch fluorescence ratio of 1.074 ± 0.003. In the case of TCGTCCGGTA, the switch fluorescence ratio is reported as 1.29 ± 0.04. TCGTCTTATA showed a switch fluorescence ratio of 0.991 ± 0.014. TCGTGAAGGG was tested, and the switch fluorescence ratio was 0.979 ± 0.051. TCGTGACGAA gave a switch fluorescence ratio of 1.03 ± 0.02. With TCGTGAGGCT the switch fluorescence ratio was 0.989 ± 0.036. TCGTGCAAGT was tested, and the switch fluorescence ratio was 1.05 ± 0.063. TCGTGCCAGG was tested, and the switch fluorescence ratio was 1.032 ± 0.01. TCGTGGCATA gave a switch fluorescence ratio of 1.11 ± 0.044. Work on TCGTGGGAAA yielded a switch fluorescence ratio of 2.11 ± 1.5. For TCGTGTACTA, the switch fluorescence ratio was 1.02 ± 0.035. TCGTTAATTA gave a switch fluorescence ratio of 1.06 ± 0.026. With TCGTTAATTT the switch fluorescence ratio was 1.014 ± 0.0029. Sequence TCGTTACAGG has a switch fluorescence ratio of 1.045 ± 0.0051. TCGTTACCCT was tested, and the switch fluorescence ratio was 1.02 ± 0.011. Work on TCGTTACGGG yielded a switch fluorescence ratio of 1.17 ± 0.26. TCGTTAGAGG showed a switch fluorescence ratio of 0.9718 ± 0.0073. For TCGTTATTCT, the switch fluorescence ratio was 1.04 ± 0.067. TCGTTCGCTA gave a switch fluorescence ratio of 3.15 ± 0.39. TCGTTCTGAA showed a switch fluorescence ratio of 0.974 ± 0.022. TCGTTGCGAG showed a switch fluorescence ratio of 0.9898 ± 0.0096. Sequence TCGTTGGGAC has a switch fluorescence ratio of 0.979 ± 0.021. Work on TCGTTGGTCC yielded a switch fluorescence ratio of 1.026 ± 0.0048. TCGTTGGTTG showed a switch fluorescence ratio of 1.02 ± 0.051. For TCGTTTACAC, the switch fluorescence ratio was 1.01 ± 0.033. Work on TCGTTTACGC yielded a switch fluorescence ratio of 1.02 ± 0.08. TCGTTTAGTG gave a switch fluorescence ratio of 0.981 ± 0.018. Sequence TCGTTTATTT has a switch fluorescence ratio of 1.02 ± 0.014. TCGTTTCGCA was tested, and the switch fluorescence ratio was 1.11 ± 0.023. Sequence TCGTTTGGAA has a switch fluorescence ratio of 1 ± 0.025. For TCGTTTGGGC, the switch fluorescence ratio was 1.02 ± 0.019. Sequence TCGTTTGGTG has a switch fluorescence ratio of 0.986 ± 0.045. In the case of TCGTTTTAGC, the switch fluorescence ratio is reported as 1.004 ± 0.0032. In the case of TCTAAAAGTG, the switch fluorescence ratio is reported as 0.9752 ± 0.0022. In the case of TCTAAAATTA, the switch fluorescence ratio is reported as 1.007 ± 0.0046. TCTAAATGTT showed a switch fluorescence ratio of 0.985 ± 0.03. Sequence TCTAAGTCGG has a switch fluorescence ratio of 0.987 ± 0.015. With TCTAAGTCTT the switch fluorescence ratio was 0.98 ± 0.042. In the case of TCTACGAAGG, the switch fluorescence ratio is reported as 1.034 ± 0.0012. With TCTACGGGGG the switch fluorescence ratio was 1.032 ± 0.0024. TCTAGACGTC showed a switch fluorescence ratio of 0.9972 ± 0.0081. TCTAGGATGG was tested, and the switch fluorescence ratio was 0.962 ± 0.023. TCTAGGGTGC was tested, and the switch fluorescence ratio was 1.13 ± 0.042. TCTATAAGGT was tested, and the switch fluorescence ratio was 0.99 ± 0.022. With TCTATAGTAA the switch fluorescence ratio was 1.057 ± 0.0087. For TCTATCCCAG, the switch fluorescence ratio was 1.13 ± 0.092. TCTATCTAGA was tested, and the switch fluorescence ratio was 0.988 ± 0.014. Sequence TCTATGAGGG has a switch fluorescence ratio of 1.01 ± 0.023. For TCTATGCTTA, the switch fluorescence ratio was 1.01 ± 0.038. TCTATTCTCC showed a switch fluorescence ratio of 1.52 ± 0.72. TCTCAAGTGG gave a switch fluorescence ratio of 0.992 ± 0.031. TCTCAGCAAA was tested, and the switch fluorescence ratio was 3.38 ± 0.53. In the case of TCTCAGTCAC, the switch fluorescence ratio is reported as 1.08 ± 0.018. With TCTCATGGAG the switch fluorescence ratio was 1 ± 0.012. TCTCCATTTA was tested, and the switch fluorescence ratio was 1.04 ± 0.015. With TCTCCCGGCA the switch fluorescence ratio was 1.34 ± 0.2. In the case of TCTCCCTTGT, the switch fluorescence ratio is reported as 1.03 ± 0.024. TCTCCTTTTT was tested, and the switch fluorescence ratio was 1.02 ± 0.053. In the case of TCTCGAGGGA, the switch fluorescence ratio is reported as 0.981 ± 0.01. In the case of TCTCGGAAGA, the switch fluorescence ratio is reported as 1.01 ± 0.022. With TCTCGGGATT the switch fluorescence ratio was 1 ± 0.013. Work on TCTCGTAACT yielded a switch fluorescence ratio of 1 ± 0.044. TCTCTACTGG gave a switch fluorescence ratio of 1.03 ± 0.058. With TCTCTTATGT the switch fluorescence ratio was 0.985 ± 0.033. For TCTCTTCAGC, the switch fluorescence ratio was 1 ± 0.0026. With TCTCTTGCGG the switch fluorescence ratio was 1.1 ± 0.2. In the case of TCTGAAAAAG, the switch fluorescence ratio is reported as 2.29 ± 1.9. In the case of TCTGAAGATC, the switch fluorescence ratio is reported as 1.06 ± 0.065. TCTGACAGTT showed a switch fluorescence ratio of 1.04 ± 0.029. TCTGAGAGAG showed a switch fluorescence ratio of 0.9823 ± 0.0032. With TCTGAGATAA the switch fluorescence ratio was 1.0208 ± 0.00085. TCTGAGTCCA showed a switch fluorescence ratio of 1.032 ± 0.0022. Sequence TCTGAGTTCA has a switch fluorescence ratio of 0.987 ± 0.019. Sequence TCTGATTATG has a switch fluorescence ratio of 0.987 ± 0.011. TCTGATTTGG gave a switch fluorescence ratio of 0.978 ± 0.028. Work on TCTGCATGGT yielded a switch fluorescence ratio of 1.07 ± 0.013. In the case of TCTGCCCCCC, the switch fluorescence ratio is reported as 1.12 ± 0.042. Sequence TCTGCTCTGG has a switch fluorescence ratio of 0.983 ± 0.03. TCTGCTTGGG showed a switch fluorescence ratio of 1.09 ± 0.13. TCTGGAATTG was tested, and the switch fluorescence ratio was 1.01 ± 0.03.

From the supplement of paper PMC10126150
